From article PMC6641633 (ACS Omega, 2018) come the findings set out here.

Substitutions are numbered along the chain they refer to. Names and notes keep the numbering of the source.

The data set concerns the molecule itself. The data set can be described thus: dynamic light scattering.

B1: truncated hepatitis B virus capsid protein Cp149, wild type (domain or fragment, UniProt P03146 1-149, looked up)
chain: MDIDPYKEFGATVELLSFLPSDFFPSVRDLLDTASALYREALESPEHCSPHHTALRQAILCWGELMTLATWVGVNLEDPASRDLVVSYVNTNMGLKFRQLLWFHISCLTFGRETVIEYLVSFGVWIRTPPAYRPPNAPILSTLPETTVV
Broadly, the stoichiometry N is the number of molecules, sites or subunits per partner or assembly. For B1, the “stoichiometry N” value is 2.

B2: Cp149-D2N/D4N mutant of the truncated hepatitis B virus capsid protein (domain or fragment, UniProt P03146 1-149, looked up)
chain: B1 chain with D2N, D4N
On to B2, for which the “stoichiometry N” value was 2.
